Test results: US20240409645A1 (DUALYX, published 2024)
Numbering of substitutions follows the chain as printed.

B1: 161-MP02C08 VHH-hFc, monospecific bivalent (Fc fusion)
chain: EVQLVESGGGLVQAGGSLRLSCAASGSTFSRQPMYWFRQAPGKEREFVAAITWSGRGTLYADSVEGRFTISRDNAKNTVYLQMNSLRPDDTAAYYCAAGPYGDAAYRHGRIDSWGQGTQVTVSS
notes: IgG1 Fc LALA-PG; not shown: human IgG1 CH2 and CH3 domains (Fc)
B2: 15-MP02E06 VHH-hFc, monospecific bivalent (Fc fusion)
chain: QVQLVESGGGSVQPGGSLRLSCAASGFTFSNYAMSWVRQAPGKGLEWVASITGFGRGTDYADSVKGRFTISRDNAEDTLYLQMNSLKPEDTAVYYCAKYSSSTYYPPTPARGRDYRGQGTQVTVSS
notes: IgG1 Fc LALA-PG; also called anti-IL-2Rβ Ab 15; not shown: human IgG1 CH2 and CH3 domains (Fc)
B3: 18-MP03C03 VHH-hFc, monospecific bivalent (Fc fusion)
chain: QVQLVESGGGLVQPGGSLRLSCAISGGTLDSYGIGWVRQAPGKQREGVSCMSRSDDRTYYADSVKGRFTISKDSAKNTVYLQMTSLKPEDTAVYYCAAVDAYGCSLVQPTTYDFWGLGTQVTVSS
notes: as for B1
B4: 19-MP03F08 VHH-hFc, monospecific bivalent (Fc fusion)
chain: EVQLVESGGGLVQTGGSLRLSCAASGGTFSRDAMAWFRQVPGKEREFVALISWSGATTNYADSVKGRFAISRDNGKNTVYLQMNRLKPADTAIYYCAADRRPMGSRSYFEPTEYDDWGQGTQVTVSS
notes: as for B1
B5: 17-MP02C09 VHH-hFc, monospecific bivalent (Fc fusion)
chain: QVQLQESGGGLVQAGGSLRLSCVASGSVSSINGMAWYRQGADNQRVLVAAISRVGNTAYGDSVKGRFTISRQNARNTVYLQMNSLKPEDTAVYYCNADSWGGDDYWGQGTQVTVSS
notes: IgG1 Fc LALA-PG; also called anti-IL-2Rβ Ab 17; not shown: human IgG1 CH2 and CH3 domains (Fc)
B6: 189-MP02B12 VHH-hFc, monospecific bivalent (Fc fusion)
chain: QVQLVESGGGLVQAGGSLRLSCAASGRADSNAIMAWFRQAPGKEREFIVAVTYSGMPTYQDDSVQGRFTASRDNAKNTVYLQMNSLKPEDTAVYYCAARMYSASTYYGDYDYWGQGTQVTVSS
notes: as for B1
B7: 126-MP02A03 VHH-hFc, monospecific bivalent (Fc fusion)
chain: QVQLVESGGGLVQPGGSLRLSCAASGFTFSNYAMSWVRQAPGKGLEWVSSITGAGRGTYYAESVKGRFTISRDNDKNTLYLQMNSLKPEDTAVYYCAKYDSSTFYPPTPARGIADRGQGTRVTVSS
notes: as for B1
B8: 168-MP02B09 VHH-hFc, monospecific bivalent (Fc fusion)
chain: EVQLVESGGGLVQAGGSLRLSCAASGRTFSTTEMGWFRQAPGKEREFVAAITWTGRGTMYAESVEGRFTISRENAKNMVYLQMNSLKPEDTAIYYCAAARRGRAAVRSEGGYDFWGQGTQVTVSS
notes: as for B1
B9: 297-MP06A08 VHH-hFc, monospecific bivalent (Fc fusion)
chain: EVQLVESGGGLVQAGESLRLSCAASGQYFSTYSMAWFRRTPGKEREFVTIISESGGIKEYVDSVKGRFTVSRDNAKNTVYLQMNSLKPEDTAVYYCAAARDWFARNEYQYDYWGQGTQVTVSS
notes: as for B1
B10: 193-MP02F12 VHH-hFc, monospecific bivalent (Fc fusion)
chain: QLQLVESGGGLVQTGTSLRLSCAASGHTSRINAMGWFRQFPGKEREFVAAISRNGGSTVYVDSVKGRFTISRDNAKSTVYLQMNSLKPEDTAVYYCTATDAVGWTTRWMTADFGFWGQGTQVTVSS
notes: as for B1
B11: 16-MP02B08 VHH-hFc, monospecific bivalent (Fc fusion)
chain: EVQLVESGGGLVQAGGSLRLSCAASGRAIENYPVGWFRQAPGKEREFVAAITWISGSTLYADSVKGRFTISRDNAKNTVYLQMSSLKPEDTALYYCAAALKTITRGQNDYSYWGQGTQVTVSS
notes: as for B1
B12: 115-MP02E01 VHH-hFc, monospecific bivalent (Fc fusion)
chain: EVQLVESGGGLVQIGGSLRLSCAASGRTFSSITMAYFRQVPGKEREWVAGINFSGTRTFYADSVKGRFLISRDDAKSTMYLQMNSLKPEDTAVYYCAASPRGFYGPGNALYDYWGQGTQVTVSS
notes: as for B1
B13: 22-MP03F12 VHH-hFc, monospecific bivalent (Fc fusion)
chain: EVQLVESGGGLVQAGGSLRLSCAASGSIFSINAMAWFRQVPGMERELVAAISRDGGASVYRDSVKGRFTISRDNSKNTVYLQMNTLKPEDTAIYVCAATRAIGWTARWITTDFDFWGQGTQVTVSS
notes: as for B1
B14: 24-MP06E05 VHH-hFc, monospecific bivalent (Fc fusion)
chain: QVQLVESGGELVQGGASLRLSCAASGRTFSNANMAWFRQAPEKEREFVALITWSSGSTLYADSVKGRFTISRDNARKMVYLQMNSLKPEDTAVYYCAADGPPYSGTYYRYDTYDYWGQGTQVTVSS
notes: as for B1
B15: 166-MP02H08 VHH-hFc, monospecific bivalent (Fc fusion)
chain: EVQLVESGGGLVQAGDSLRISCAASGRIFSNYAMGWFRQAPGKETEFVAGITHLTSTTHYADSVKGRFTISRDNAKNTMHLQMNNLKPEDTALYYCAADRNIKITADWSYWGQGTQVTVAS
notes: as for B1
B16: 184-MP02E11 VHH-hFc, monospecific bivalent (Fc fusion)
chain: QVQLQESGGGLVQAGGSLRLSCAASGRTFSNYVMAWFRQAPGKEREFVGAITQTGRGTFYADSVEGRFTISRINDKNTVYLQMNSLKPEDTAVYYCSAPRSGRAGTRNQMDYEYWGQGTQVTVSS
notes: as for B1
B17: 23-MP06F03 VHH-hFc, monospecific bivalent (Fc fusion)
chain: QVQLVESGGGLVQAGGSLRLSCAVSGDVFVRYTMAWFRQAPGKEREFVASVTDSGRTTDYVHSVKGRFTVSRDNAKNTVYLQMNNLKPEDTAVYYCAANTDYFQIKSLDANTWGQGTQVTVSS
notes: as for B1
B18: 26-MP06A07 VHH-hFc, monospecific bivalent (Fc fusion)
chain: B17 chain with V5Q, V24A, D59E, H62D, V79A, V93I, K106R, A110L
notes: as for B1

biological target: T1, cynomolgus monkey IL-2Rβ/CD122 subunit (cynomolgus monkey, UniProt Q38J85 27-239, limits assumed); test: ELISA, bivalent VHH-hFc
T1 construct: also called Cyno IL-2R subunit
T1 sequence (looked up): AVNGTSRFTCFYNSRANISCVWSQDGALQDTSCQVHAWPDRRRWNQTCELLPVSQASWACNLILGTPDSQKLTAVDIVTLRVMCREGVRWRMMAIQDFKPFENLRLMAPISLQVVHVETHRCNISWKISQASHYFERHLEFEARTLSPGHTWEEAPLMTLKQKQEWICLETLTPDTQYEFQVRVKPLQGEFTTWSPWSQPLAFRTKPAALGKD
Method: (§1) Monospecific monovalent and bivalent IL-2Rα-, IL-2Rβ- and IL-2Rγ-specific antibodies that were selected on human IL-2R subunits, were evaluated for their cross-reactivity in an ELISA. Human and cynomolgus monkey receptor subunits (Acrobiosystems, KactusBiosystems) were coated at 1 μg/mL in PBS (pH 7.4) in a Maxisorp plate (Nunc) and incubated overnight at 4° C. The plates were further washed with PBS-Tween pH 7.4 and incubated with 1% cascin/PBS-Tween blocking solution for 1 hour shaking at 400 rpm. Subsequently, the plate was washed three times with PBS-Tween pH 7.4, after which the test antibodies diluted in 0.1% casein/PBS-Tween were added to the plate and incubated for 1 hour. The plate was again washed three times, after which goat anti-human IgG Fc (HRP) detection antibody (abcam) was added to the plate and incubated for 30 min. The colouring reaction was performed with TMB (Sigma-Aldrich) and stopped with 0.5N H₂SO₄.
(§2) Absorbance was measured at 450 nm with the reference wavelength of 620 nm using spectrophotometer. Final analysis and graphic output were performed with GraphPad Prism version 8 (GraphPad Software). The dose-response binding curves were fit to a nonlinear regression model (log (agonist) vs. response with a variable slope (four parameters)).

| Binder | EC50 [nM] |
| --- | --- |
| B1 | 0.157 |
| B2 | 0.895 |
| B3 | 0.3 |
| B4 | 0.603 |
| B5 | 0.184 |
| B6 | 0.066 |
| B7 | 0.065 |
| B8 | 0.127 |
| B9 | 0.09 |
| B10 | 0.099 |
| B11 | 0.23 |
| B12 | 0.06 |
| B13 | 0.122 |
| B14 | 0.265 |
| B15 | 0.105 |
| B16 | 0.074 |
| B17 | 0.157 |
| B18 | 0.138 |

biological target: T2, human interleukin-2 receptor β-chain (IL-2Rβ; CD122), recombinant protein (human, UniProt P14784 27-240); test: ELISA, bivalent VHH-hFc
T2 construct: also called human IL-2R subunit CD122
T2 sequence: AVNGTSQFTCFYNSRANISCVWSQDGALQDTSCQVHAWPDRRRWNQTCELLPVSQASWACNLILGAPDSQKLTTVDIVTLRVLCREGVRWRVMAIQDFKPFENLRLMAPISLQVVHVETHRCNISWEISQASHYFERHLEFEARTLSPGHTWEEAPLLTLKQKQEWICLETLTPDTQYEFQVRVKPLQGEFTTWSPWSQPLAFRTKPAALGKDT
Method: as §1, §2

| Binder | EC50 [nM] |
| --- | --- |
| B1 | 0.084 |
| B2 | 0.209 |
| B3 | 0.294 |
| B4 | 0.794 |
| B5 | 0.124 |
| B6 | 0.053 |
| B7 | 0.09 |
| B8 | 0.053 |
| B9 | 0.079 |
| B10 | 0.087 |
| B11 | 0.245 |
| B12 | 0.06 |
| B13 | 0.124 |
| B14 | 0.191 |
| B15 | 0.085 |
| B16 | 0.059 |
| B17 | 0.125 |
| B18 | 0.117 |

biological target: T1, cynomolgus monkey IL-2Rβ/CD122 subunit; test: ELISA, bivalent; EC50 cyno vs human subunit
Method: as §1, §2

| Binder | Fold change [fold] |
| --- | --- |
| B1 | 1.9 |
| B2 | 4.3 |
| B3 | 1 |
| B4 | 0.8 |
| B5 | 1.5 |
| B6 | 1.3 |
| B7 | 0.7 |
| B8 | 2.4 |
| B9 | 1.2 |
| B10 | 1.1 |
| B11 | 0.9 |
| B12 | 1 |
| B13 | 1 |
| B14 | 1.4 |
| B15 | 1.2 |
| B16 | 1.3 |
| B17 | 1.3 |
| B18 | 1.2 |
